Test results taken from patent publication US11524046B2, “Biofilm prevention, disruption and treatment with bacteriophage lysin” (priority 2012, dated 2022).

Experiments:
[1] = system: Staphylococcus epidermidis; experiment: MIC of PlySs2, susceptible and non-susceptible bacterial strains; format: cell-based; settings: Staphylococcus epidermidis (11)
Listeria monocytogenes = experiment: as above; format: cell-based; settings: Listeria monocytogenes (12)
Enterococcus faecalis = Enterococcus faecalis (17)
[2] = system: methicillin resistant S. aureus MRSA strain ATCC BAA-42; experiment: MIC by broth microdilution (CLSI M07-A9) against strain ATCC BAA-42; format: cell-based
[3] = system: Staphylococcus epidermidis biofilms; experiment: Biofilm eradicating concentration (BEC), 24 h biofilms in 24 well plates, crystal violet; format: cell-based
Enterococcus faecium = Enterococcus faecium (5)
[4] = system: Streptococcus pyogenes, Group A; experiment: MIC of PlySs2, susceptible and non-susceptible bacterial strains; format: cell-based; settings: Group A (54)
Bacillus cereus = Bacillus cereus (10)
biofilms of BAA-42 MRSA = experiment: Biofilm eradication in 24-well plates, crystal violet staining; format: cell-based, S. aureus

B1: PlySs2: bacteriophage lysin derived from Streptococcus suis, amino acid sequence of FIG. 5 / SEQ ID NO: 1; CHAP and SH3 domains (protein, listed as Streptococcus suis)
chain: MTTVNEALNNVRAQVGSGVSVGNGECYALASWYERMISPDATVGLGAGVGWVSGAIGDTISAKNIGSSYNWQANGWTVSTSGPFKAGQIVTLGATPGNPYGHVVIVEAVDGDRLTILEQNYGGKRYPVRNYYSAASYRQQVVHYITPPGTVAQSAPNLAGSRSYRETGTMTVTVDALNVRRAPNTSGEIVAVYKRGESFDYDTVIIDVNGYVWVSYIGGSGKRNYVATGATKDGKRFGNAWGTFK
MIC 50% [1]: 128 µg/mL | MIC 90% [1]: 512 µg/mL | MIC Range [1]: 4 to 512 µg/mL | MIC 50% (Listeria monocytogenes): 128 µg/mL | MIC 90% (Listeria monocytogenes): 512 µg/mL | MIC Range (Listeria monocytogenes): 1 to 512 µg/mL | MIC 50% (Enterococcus faecalis): >512 µg/mL | MIC 90% (Enterococcus faecalis): >512 µg/mL | MIC value ([2]; ATCC BAA-42, in the absence of reducing agent): 32 µg/mL | Minimally inhibitory concentration (MIC) ([2]; ATCC BAA-42, in the presence of reducing agent (such as DTT or BMS)): 16 µg/mL | BEC ([3]; CFS 166, Environmental lab contaiminant): 5.12 µg/mL | BEC ([3]; CFS 224, HER 1292): 5.12 µg/mL | BEC ([3]; CFS 225, HPH-6): 0.512 µg/mL | BEC ([3]; CFS 226, HPH-5): 5.12 µg/mL | BEC ([3]; CFS 227, HCN-4): 5.12 µg/mL | BEC ([3]; CFS 272, NRS53 (VISE)): 0.215 µg/mL | BEC ([3]; CFS 280, NRS101 (MRSE)): 0.512 µg/mL | BEC ([3]; CFS 300, NRS8, (VISE)): 0.512 µg/mL | BEC ([3]; CFS 313, NRS34 (VISE)): 0.512 µg/mL | BEC ([3]; CFS 533, NRS6, (VISE), bloodstream USA): 0.512 µg/mL | BEC ([3]; CFS 552, ATCC #12228 (MSSE)): 51.2 µg/mL | BEC ([3]; CFS 769, NRS101): 0.512 µg/mL | BEC ([3]; CFS 1152, ATCC-14990): 5.12 µg/mL | BEC ([3]; CFS 1154, ATCC-49461): 5.12 µg/mL | BEC ([3]; CFS 1161, NRS850-VCU028): 5.12 µg/mL | BEC ([3]; CFS 1164, NRS853-VCU041): 5.12 µg/mL | BEC ([3]; CFS 1165, NRS854-VCU045): 5.12 µg/mL | BEC ([3]; CFS 1168, NRS857-VCU065): 0.512 µg/mL | BEC ([3]; CFS 1174, NRS864-VCU112): 51.2 µg/mL | BEC ([3]; CFS 1184, NRS874-VCU126): 5.12 µg/mL | BEC ([3]; CFS 1185, NRS875-VCU127): 5.12 µg/mL | BEC ([3]; CFS 1186, NRS876-VCU128): 0.512 µg/mL | MIC 50% (Enterococcus faecium): >512 µg/mL | MIC 90% (Enterococcus faecium): >512 µg/mL | MIC 50% [4]: 2 µg/mL | MIC 90% [4]: 8 µg/mL | MIC Range [4]: 0.5 to 8 µg/mL | MIC 50% (Bacillus cereus): >512 µg/mL | MIC 90% (Bacillus cereus): >512 µg/mL | MIC Range (Bacillus cereus): >512 µg/mL | biofilm dissolution (biofilms of BAA-42 MRSA; 3.2 μg/ml (1/10×MIC), 4 hours): Significant dissolution | time by which full clearance was observed (biofilms of BAA-42 MRSA; 0.01×MIC): ≤ 24 h | biofilm clearance (biofilms of BAA-42 MRSA; 0.01×MIC, 4 hours): partial clearance | time by which the biofilm is cleared (biofilms of BAA-42 MRSA; 0.1×MIC): ≤ 4 h | biofilm dissolution (biofilms of BAA-42 MRSA; 0.32 (1/100×MIC), 4 hours): some dissolution | time by which the biofilm is cleared (biofilms of BAA-42 MRSA; 1×MIC 32 μg/ml): ≤ 2 h
